The target of assay [1] is T1, recombinant human C1r2s2 tetramer (human, UniProt P09871 16-688; P00736 18-705).
T1 construct: C1s and C1r co-expressed in HEK293/FreeStyle 293-F and purified from conditioned medium
T1 chain 1: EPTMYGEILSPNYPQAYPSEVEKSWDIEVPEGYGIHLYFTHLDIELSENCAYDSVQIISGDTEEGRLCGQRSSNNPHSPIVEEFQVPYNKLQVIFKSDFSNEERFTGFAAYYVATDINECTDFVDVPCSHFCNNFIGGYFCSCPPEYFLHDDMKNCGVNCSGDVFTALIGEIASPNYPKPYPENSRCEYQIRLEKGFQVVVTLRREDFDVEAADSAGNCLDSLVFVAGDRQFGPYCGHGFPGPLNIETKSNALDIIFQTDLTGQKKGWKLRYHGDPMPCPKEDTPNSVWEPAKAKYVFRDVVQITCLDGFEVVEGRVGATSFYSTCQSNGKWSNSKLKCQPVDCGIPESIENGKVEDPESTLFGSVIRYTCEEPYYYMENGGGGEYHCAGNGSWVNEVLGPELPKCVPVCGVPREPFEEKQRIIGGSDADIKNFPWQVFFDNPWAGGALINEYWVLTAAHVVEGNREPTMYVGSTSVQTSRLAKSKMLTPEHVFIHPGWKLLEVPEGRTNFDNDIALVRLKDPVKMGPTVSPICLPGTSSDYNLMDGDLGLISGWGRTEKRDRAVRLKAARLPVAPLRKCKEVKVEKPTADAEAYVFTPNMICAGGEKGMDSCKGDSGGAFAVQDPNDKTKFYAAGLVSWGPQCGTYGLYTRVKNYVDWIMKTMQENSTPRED
T1 chain 2: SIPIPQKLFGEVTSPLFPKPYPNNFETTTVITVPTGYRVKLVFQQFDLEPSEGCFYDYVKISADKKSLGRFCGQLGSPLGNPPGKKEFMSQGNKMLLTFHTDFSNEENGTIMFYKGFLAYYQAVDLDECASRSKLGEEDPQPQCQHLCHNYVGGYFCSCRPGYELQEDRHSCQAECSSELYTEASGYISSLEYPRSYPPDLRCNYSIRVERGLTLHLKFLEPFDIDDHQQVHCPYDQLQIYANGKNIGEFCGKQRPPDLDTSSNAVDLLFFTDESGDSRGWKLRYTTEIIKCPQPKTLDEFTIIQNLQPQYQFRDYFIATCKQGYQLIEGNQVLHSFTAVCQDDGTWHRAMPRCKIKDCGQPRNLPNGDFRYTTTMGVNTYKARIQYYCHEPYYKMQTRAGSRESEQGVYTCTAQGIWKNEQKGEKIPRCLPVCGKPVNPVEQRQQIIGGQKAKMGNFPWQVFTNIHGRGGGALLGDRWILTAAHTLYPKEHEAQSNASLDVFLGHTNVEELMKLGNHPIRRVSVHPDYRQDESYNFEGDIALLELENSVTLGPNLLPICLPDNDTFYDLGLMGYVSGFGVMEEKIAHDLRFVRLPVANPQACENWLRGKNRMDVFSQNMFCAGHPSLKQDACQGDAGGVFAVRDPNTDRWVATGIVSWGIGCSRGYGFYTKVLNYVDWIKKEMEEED
The experiment in a line: SPR (BIACORE T200), 37 C, Ab captured via anti-human Ig kappa, human C1r2s2 as analyte, pH 5.8. On the procedure: (§1) KD (dissociation constant) value of each samples at pH 7.4 and pH 5.8 are determined at 37 degrees C. using BIACORE® T200 instrument (GE Healthcare). Purified Mouse Anti-Human Ig kappa Light Chain (GE Healthcare) can be immobilized onto all flow cells of a CMS sensor chip using an amine coupling kit (GE Healthcare). 20 mM ACES, 150 mM NaCl, 1.2 mM CaCl2, 1 mg/mL BSA (IgG-free), 1 mg/mL CMD, 0.05% Tween® 20, 0.005% NaN3, pH 7.4 or pH 5.8 buffer were used as running buffer. Each antibody can be captured onto the sensor surface by Anti-Human Ig kappa Light chain. Antibody capture levels are aimed at 50 resonance unit (RU). […] Sensor surface is regenerated each cycle with, e.g., Glycine pH 2.0 (GE Healthcare). KD values were obtained using BIACORE® T200 Evaluation software, version 2.0 (GE Healthcare).

For assay [2], the target named is T1, recombinant human C1r2s2 tetramer. The assay is described as follows: SPR (BIACORE T200), 37 C, Ab captured via anti-human Ig kappa, human C1r2s2 as analyte, pH 7.4. Here is the method: as §1
In general terms: SPR reads the build-up and loss of mass on a sensor chip optically.

The target is the same in assay [3]. The assay is described as follows: SPR (BIACORE T200), 37 C, ratio of KD at pH 5.8 to KD at pH 7.4. Here is the method:
as §1

For assay [4] the target is unchanged. The assay is described as follows: SPR (BIACORE), antibody captured by ProL, human C1r2s2 injected at 100 nM, pH 7.4, 37 C. The method in brief: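 Antibody variants captured on a protein L surface (~200 RU) were probed with recombinant human C1r2s2 at 25 and 100 nM, followed by dissociation. Run at pH 7.4 and 37 degrees C in ACES buffer containing 1.2 mM CaCl2, BSA and CM-dextran. Regeneration was with glycine-HCl pH 1.5.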

B1: COS0637cc-TT91R (antibody, human IgG1)
heavy: QSLEESGGRLVTPGTPLTLTCTASGFSLSAYAMNWVRQAPGKGLEWIGLIYGSGSTFYASWAKGRFTISKTSTTVDLKMTSLTTEDTATYFCARGRSVNYNSDFKLWGPGTLVTVSSASTKGPSVFPLAPSSKSTSGGTAALGCLVKDYFPEPVTVSWNSGALTSGVHTFPAVLQSSGLYSLSSVVTVPSSSLGTQTYICNVNHKPSNTKVDKRVEPKSCDKTHTCPPCPAPEYLGGDSVFLFPPKPKDVLMISRTPEVTCVVIDVSHEDPEVKFNWYVDGVEVHNAKTKPREEQYNSTYRVVSVLPVLHRDWLNGKEYKCKVSNKALPKPIEKTISKAKGQRREPQVYTLPPSREEMTKNQVSLTCLVKGFYPSDIAVEWESNGQPENNYKTTPPVLDSDGSFFLYSKLTVDKSRWQQGNVFSCSVLHEALHAHTTRKELSLSP
light: QVLTQTPSSVSAAVGGTVTINCQASQSLHDKKNLAWYQHKPGQRPNLLIYGASTLESGVPSRFKGSGSGTEYTLTISDLECDDAAAYYCQGEFSCSSADCNTFGGGTKVEIKRTVAAPSVFIFPPSDEQLKSGTASVVCLLNNFYPREAKVQWKVDNALQSGNSQESVTEQDSKDCTYSLSSTLTLSKADYEKHKVYACEVTHQGLSSPVTKSFNRGEC
notes: Rabbit variable regions (chimera) with modified human IgG1 CH TT91R and modified human CL KOMC; also called COS637cc-TT91R
For the molecule B1, the Kd was 43.3 nM in assay [1] and 4.48 nM in assay [2]. In addition, the “KD (pH 5.8)/KD (pH 7.4)” value in assay [3] is 10.

B2: AL0746 (antibody, human IgG1, kappa, V domains shown)
VH: QVQLVESGGGVVQPGRSLRLSCAASGFTFSAYAMNWIRQPPGKGLEWIGLIYGSGSTFYASWAKGRVTISVDTSKNQFSLKLSSVTAADTAVYYCARGRSVNYNSDFHLWGQGTLVTVSS
VL: DIQMTQSPSSLSASVGDRVTITCQASQSLHDKKNLAWYQQKPGQPPKLLIYGASTLESGVPSRFSGSGSGTDFTLTISSLQPEDFATYYCQGEFSRSSADYNTFGQGTKVEIKR
notes: COS0637temp with VL C94R/C95dY (Kabat), already in the VL entry
Regarding B2, in assay [4], the binding result was “no binding (tested: 100 nM)”.

B3: COS0637pHv7-TT91R (antibody, V domains shown)
VH: QVQLVESGGGVVQPGRSLRLSCAASGFTFSAYAMNWIRQPPGKGLEWIGLIYGSGHEFYASWAEERVTISVDTSKNQFSLKLSSVTAADTAVYYCARGRSKNYNSDFHLWGQGTLVTVSS
VL: DIQMTQSPSSLSASVGDRVTITCQASQILHDKKNLAWYQQKPGQPPKLLIYQASQLESGVPSRFSGSGSGTDFTLTISSLQPEDFATYYCHGEFSYSSADLNTFGQGTKVEIKR
With B3, the results for the Kd in assay [1] and in assay [2] were 353 nM and 4.9 nM, respectively. For the same molecule, in assay [3], the “KD (pH 5.8)/KD (pH 7.4)” value was determined as 72.

B4: AL0749 (antibody, human IgG1, kappa, V domains shown)
VH: QVQLVESGGGVVQPGRSLRLSCAASGFTFSAYAMNWIRQPPGKGLEWIGLIYGSGSTFYASWAKGRVTISVDTSKNQFSLKLSSVTAADTAVYYCARGRSVNYNSDFHLWGQGTLVTVSS
VL: DIQMTQSPSSLSASVGDRVTITCQASQSLHDKKNLAWYQQKPGQPPKLLIYGASTLESGVPSRFSGSGSGTDFTLTISSLQPEDFATYYCQGEFSLSSADRNTFGQGTKVEIKR
notes: COS0637temp with VL C94L/C95dR (Kabat), already in the VL entry
As for B4, in assay [4], the binding result is recorded as “no binding (tested: 100 nM)”.

B5: AL0751 (antibody, human IgG1, kappa, V domains shown)
VH: QVQLVESGGGVVQPGRSLRLSCAASGFTFSAYAMNWIRQPPGKGLEWIGLIYGSGSTFYASWAKGRVTISVDTSKNQFSLKLSSVTAADTAVYYCARGRSVNYNSDFHLWGQGTLVTVSS
VL: DIQMTQSPSSLSASVGDRVTITCQASQSLHDKKNLAWYQQKPGQPPKLLIYGASTLESGVPSRFSGSGSGTDFTLTISSLQPEDFATYYCQGEFSASSADVNTFGQGTKVEIKR
notes: COS0637temp with VL C94A/C95dV (Kabat), already in the VL entry
In the case of B5, the binding result in assay [4] is reported as “no binding (tested: 100 nM)”.

B6: COS0637h-TT91R (antibody, human IgG1, V domains shown)
VH: QVQLVESGGGVVQPGRSLRLSCAASGFTFSAYAMNWIRQPPGKGLEWIGLIYGSGSTFYASWAKGRVTISVDTSKNQFSLKLSSVTAADTAVYYCARGRSVNYNSDFKLWGQGTLVTVSS
VL: DIQMTQSPSSLSASVGDRVTITCQASQSLHDKKNLAWYQQKPGQPPKLLIYGASTLESGVPSRFSGSGSGTDFTLTISSLQPEDFATYYCQGEFSCSSADCNTFGQGTKVEIKR
notes: Humanized COS0637cc; modified human IgG1 CH TT91R, human CL SK1
Turning to B6, the Kd in assay [1] was determined as 362 nM; in assay [2] it was 25.4 nM. Also, in assay [3], the “KD (pH 5.8)/KD (pH 7.4)” value amounted to 14.

B7: AL0747 (antibody, human IgG1, kappa, V domains shown)
VH: QVQLVESGGGVVQPGRSLRLSCAASGFTFSAYAMNWIRQPPGKGLEWIGLIYGSGSTFYASWAKGRVTISVDTSKNQFSLKLSSVTAADTAVYYCARGRSVNYNSDFHLWGQGTLVTVSS
VL: DIQMTQSPSSLSASVGDRVTITCQASQSLHDKKNLAWYQQKPGQPPKLLIYGASTLESGVPSRFSGSGSGTDFTLTISSLQPEDFATYYCQGEFSMSSADRNTFGQGTKVEIKR
notes: COS0637temp with VL C94M/C95dR (Kabat), already in the VL entry
Turning to B7, the binding result in assay [4] is listed as “no binding (tested: 100 nM)”.

B8: AL0753 (antibody, human IgG1, kappa, V domains shown)
VH: QVQLVESGGGVVQPGRSLRLSCAASGFTFSAYAMNWIRQPPGKGLEWIGLIYGSGSTFYASWAKGRVTISVDTSKNQFSLKLSSVTAADTAVYYCARGRSVNYNSDFHLWGQGTLVTVSS
VL: DIQMTQSPSSLSASVGDRVTITCQASQSLHDKKNLAWYQQKPGQPPKLLIYGASTLESGVPSRFSGSGSGTDFTLTISSLQPEDFATYYCQGEFSVSSADVNTFGQGTKVEIKR
notes: COS0637temp with VL C94V/C95dV (Kabat), already in the VL entry
In the case of B8, in assay [4], the binding result is recorded as “no binding (tested: 100 nM)”.

B9: AL0748 (antibody, human IgG1, kappa, V domains shown)
VH: QVQLVESGGGVVQPGRSLRLSCAASGFTFSAYAMNWIRQPPGKGLEWIGLIYGSGSTFYASWAKGRVTISVDTSKNQFSLKLSSVTAADTAVYYCARGRSVNYNSDFHLWGQGTLVTVSS
VL: DIQMTQSPSSLSASVGDRVTITCQASQSLHDKKNLAWYQQKPGQPPKLLIYGASTLESGVPSRFSGSGSGTDFTLTISSLQPEDFATYYCQGEFSISSADFNTFGQGTKVEIKR
notes: COS0637temp with VL C94I/C95dF (Kabat), already in the VL entry
Turning to B9, the binding result in assay [4] was “no binding (tested: 100 nM)”.

B10: AL0752 (antibody, human IgG1, kappa, V domains shown)
VH: QVQLVESGGGVVQPGRSLRLSCAASGFTFSAYAMNWIRQPPGKGLEWIGLIYGSGSTFYASWAKGRVTISVDTSKNQFSLKLSSVTAADTAVYYCARGRSVNYNSDFHLWGQGTLVTVSS
VL: DIQMTQSPSSLSASVGDRVTITCQASQSLHDKKNLAWYQQKPGQPPKLLIYGASTLESGVPSRFSGSGSGTDFTLTISSLQPEDFATYYCQGEFSVSSADANTFGQGTKVEIKR
notes: COS0637temp with VL C94V/C95dA (Kabat), already in the VL entry
In the case of B10, the binding result in assay [4] is “no binding (tested: 100 nM)”.

B11: AL0750 (antibody, human IgG1, kappa, V domains shown)
VH: QVQLVESGGGVVQPGRSLRLSCAASGFTFSAYAMNWIRQPPGKGLEWIGLIYGSGSTFYASWAKGRVTISVDTSKNQFSLKLSSVTAADTAVYYCARGRSVNYNSDFHLWGQGTLVTVSS
VL: DIQMTQSPSSLSASVGDRVTITCQASQSLHDKKNLAWYQQKPGQPPKLLIYGASTLESGVPSRFSGSGSGTDFTLTISSLQPEDFATYYCQGEFSMSSADLNTFGQGTKVEIKR
notes: COS0637temp with VL C94M/C95dL (Kabat), already in the VL entry
As for B11, the binding result in assay [4] was “no binding (tested: 100 nM)”.

As a reminder, the Kd is the free concentration of one partner at which half of the binding sites on the other are occupied at equilibrium, for simple one-to-one binding.

The values are drawn from patent US20240092889A1 (Chugai, published 2024).
